{"source": "paper PMC9779650", "about": "(2022)", "key": {"[1]": {"target": "T1, SARS-CoV-2 spike RBD-His (wildtype, WA1/2020) (SARS-CoV-2, UniProt P0DTC2 319-541)", "assay": "BLI"}, "[2]": {"target": "T1, SARS-CoV-2 spike RBD-His (wildtype, …)", "assay": "BLI", "remark": "listed apart in the source"}}, "data": [{"binder": "P4A2 monoclonal antibody (antibody, V domains shown) VH: QVQLQQSGAELVKPGASVKLSCKASGFTFTRYSIYWMKQRPGQGLEWIGEINPSTGDTNFNEKFKSKATLTVDKSSTTAYMQLSSLTSEDSAVYYCTRSTGYWGQGTLVTVSA VL: DIVLTQSPASLAVSLGQRATISCRASESVEYHGTILMQWFQQKPGQPPRLLIYAASNVDSGVPARFSGSGSGTDLSLNIHPVEEDDIAMYFCQQSRKVPYTFGGGTKLEIK", "values": [{"measurement": "Kd", "setting": "[1]", "value": "< 1", "unit": "pM"}, {"measurement": "koff", "setting": "[2]", "value": "< 1e-07", "unit": "s⁻¹"}]}]}
